Experimental data: PMC8646600 (Advanced Science, 2021)

Assays:
[1] = target: SARS-CoV-2 RBD titrated over immobilised Fabs (construct not stated) (SARS-CoV-2 (ancestral, Wuhan-Hu-1 …, UniProt P0DTC2)); experiment: BLI; settings: both partners purified
[2] = target: T1, SARS-CoV-2 spike RBD (S-RBD), hFc tag removed by thrombin digestion, biotinylated (SARS-CoV-2, UniProt P0DTC2); experiment: BLI; settings: both partners purified
[3] = target: T1, SARS-CoV-2 spike RBD (S-RBD), hFc tag …; experiment: ELISA; settings: both partners purified
[4] = target: T2, full-length SARS-CoV spike expressed on cells (SARS-CoV, strain , UniProt P59594); experiment: flow cytometry on cells; settings: one partner purified
T2 construct: source: HEK293T, transiently transfected, on cells

B1: S-B8 Fab (Fab, V domains shown)
VH: QVQLVQSGGGLIQPGGSLRLSCAASGFTVSLSHMNWVRQAPGKGLEWVSITYGDGNSDYADSVKGRFTISRDNSKNTLYLQMNSLRAEDTAVYYCAREYYYGMDVWGQGTTVTVSS
VL: not shown
Kd [1]: 15.4 nM

B2: S-B8 full-length human IgG4e1(S228P) antibody (antibody, V domains shown)
VH: B1 VH
VL: not shown
notes: also called S-B8 IgG; source: HEK293F, secreted; clarified culture supernatant, and purified (Mabselect)
Kd [2]: 7.79 nM
IC50 [3]: 12.9 nM

B3: S-E6 Fab (Fab, V domains shown)
VH: QVTLRESGPGLVKPSETLSLTCAVSGGSLSSVNYYWSWIRQHPGKGLEWIGYIYYSGSTNYNPSLKSRVTMSLDTSKNQFSLKLSSVTAADTAVYYCATPGAIMGALHIWGQGTLVTVSS
VL: QAVLTQPSSASSTPGQRVIISCSGSSSNIGSNTVSWYQQVPGAAPKLLIYFDYRRPSGVPDRFSGTRSGTSASLGISGLQSEDEADYYCAAWDDSLSAWVFGRGTKLTVL
Kd [1]: 11.4 nM

B4: S-E6 full-length human IgG4e1(S228P) antibody (antibody, V domains shown)
VH: B3 VH
VL: B3 VL
notes: also called S-E6 IgG; source: HEK293F, secreted; clarified culture supernatant, and purified (Mabselect)
binding result [4]: no binding
